Results reported in patent publication US20030103946A1, “Immunotherapeutic methods and molecules” (Imperial College Innovations Limited, priority 2000, published 2003).
Where two headings read alike, the source gives them in different places.

How the values were obtained:
[1] = molecular target: T1, HLA-A0201 (Homo sapiens, UniProt P04439, D140Y/D185E/D98H/E176V/E277Q/G131W/G231S/I119V/I121R/I166T/I218V/L300P/L318F/N151K/N90K/P208A/P217A/Q86G/Q94H/R138H/R169H/T345S); assay: T2 assay: HLA-A0201 binding of peptides (stabilisation of HLA-A0201 expression in TAP-deficient T2 cells)
T1 construct: ability of peptides to stabilise HLA-A0201 expression in the TAP-deficient T2 cells; endogenous in cells; host or cells: T2 cells (human, TAP-deficient; ATCC CRL 1992)
Experimental: By “HLA-binding” peptide we mean a peptide which binds to one or more HLA molecules. Typically, a peptide will show HLA binding in a T2 binding assay when present in a concentration range of 10 μM to 1 nM. Whether or not a peptide of human CD45 is an HLA-binding peptide can be determined using methods known in the art. These methods include the T2 HLA stabilisation assay described in FIG. 1, and the method described by Elvin et al (1993) J. Immunol. Methods 158, 161-171.
Peptide binding was measured using the T2 assay that is based on the ability of peptides to stabilise HLA-A0201 expression in the TAP-deficient T2 cells.
Sixteen peptides of the CD45 molecule were selected and 14 of them we tested in HLA-A0201 binding assays as described in the legend to FIG. 1.

[2] = tested on: CTL from HLA-A0201 negative donors; assay: Stimulation of peptide-specific allorestricted CTL responses by peptide; type: cell-based, human
Excerpt: Peptide-specific CTL were isolated from HLA-A0201 negative donors using the method described in WO 97/26328. Three peptide-specific lines were established and found to show specific killing of T2 target cells presenting peptide 1218 but not targets presenting control HLA-A0201− binding peptides (HBV(18-27)).
Peptide-specific CTL were isolated from HLA-A0201 negative donors using the method described in WO 97/26328. Three peptide-specific lines were established and found to show specific killing of T2 target cells presenting peptide 1218 but not targets presenting control peptides.

HLA-A0201 binding [1]: binds HLA-A0201
HLA-A0201 binding ([1]; listed as Peptide 1218): one of the best binders
HLA-A0201 binding ([1]; listed as p1218): one of the best binding peptides
HLA-A0201 binding ([1]; listed as peptide 1218): one of the best binders
Sequence: FLYDVIAST [huCD45/1218, peptide of human CD45]
induction of peptide specific CTL ([2]; listed as Peptide 1218): can induce peptide specific CTL
induction of peptide specific CTL ([2]; listed as p1218): reliably generate peptide-specific, allorestricted CTL
